Five molecules from publication PMC7196632, “NAD^+ biosynthesis in bacteria is controlled by global carbon/nitrogen levels via PII signaling” (The Journal of Biological Chemistry, 2020) can be followed below.

Data set [1] concerns the target T1, GlnZ (with AbNadE2; 2-OG site on GlnZ) (Azospirillum brasilense, UniProt P70731).
T1 construct: GlnZ homotrimer, non-uridylylated (native in activity assay; N-terminal His-tag kept in BLI), recombinant from E. coli; with Glutamine-dependent NAD(+) synthetase
As to the kind of experiment: biolayer interferometry, inhibition of GlnZ-AbNadE2 association. The class given is binding. On the procedure: biolayer interferometry, inhibition of GlnZ-AbNadE2 association on GlnZ (with AbNadE2; 2-OG site on GlnZ) | The binding curves and Ki were determined using the manufactureŕs software
In general terms: Biolayer interferometry detects binding as a change in optical thickness at a sensor tip.

In data set [2] the target is T1, GlnZ (with AbNadE2; 2-OG site on GlnZ). Nature of the data set: loss of GlnZ relief of NAD+ inhibition of AbNadE2 (PPi release). The class given is biochemical.
A further data set concerns the target T2, ScNadE2 (ScNadE^Gln) (Synechocystis sp. PCC 6803, UniProt P74292).
T2 construct: gene nadE; full-length, N-terminal His-tag removed with TEV protease, recombinant from E. coli (pTEV5-based pASnadESc); dimer
T2 sequence (P74292 1-558): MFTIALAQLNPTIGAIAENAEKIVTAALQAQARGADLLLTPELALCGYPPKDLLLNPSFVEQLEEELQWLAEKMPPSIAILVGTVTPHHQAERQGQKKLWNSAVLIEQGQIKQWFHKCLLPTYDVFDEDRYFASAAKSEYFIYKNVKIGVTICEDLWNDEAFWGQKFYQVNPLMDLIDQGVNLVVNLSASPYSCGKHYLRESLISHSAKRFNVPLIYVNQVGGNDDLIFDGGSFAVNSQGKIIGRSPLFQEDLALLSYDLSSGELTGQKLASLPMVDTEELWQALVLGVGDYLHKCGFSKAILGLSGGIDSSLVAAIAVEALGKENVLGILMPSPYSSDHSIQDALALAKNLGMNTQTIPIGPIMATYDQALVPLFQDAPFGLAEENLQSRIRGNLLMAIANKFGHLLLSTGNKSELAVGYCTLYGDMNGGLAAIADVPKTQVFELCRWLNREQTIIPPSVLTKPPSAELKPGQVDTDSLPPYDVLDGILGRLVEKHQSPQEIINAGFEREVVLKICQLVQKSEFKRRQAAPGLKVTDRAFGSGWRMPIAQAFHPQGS
Nature of the data set: discontinuous assay of PPi release (EnzChek pyrophosphate kit). Format: biochemical. Particulars: no PII (2 uM BSA); 100 nM enzyme, 4 mM ATP, 2 mM NaAD, 4 mM L-glutamine, 10 mM MgCl2, pH 8, 30 C.

The next data set deals with T3, HsNadE2 (HsNadE2^Gln) (Herbaspirillum seropedicae, UniProt D8IX05).
T3 construct: gene nadE; full-length, His-tag removed by thrombin, recombinant from E. coli; dimer
T3 sequence (D8IX05 1-565): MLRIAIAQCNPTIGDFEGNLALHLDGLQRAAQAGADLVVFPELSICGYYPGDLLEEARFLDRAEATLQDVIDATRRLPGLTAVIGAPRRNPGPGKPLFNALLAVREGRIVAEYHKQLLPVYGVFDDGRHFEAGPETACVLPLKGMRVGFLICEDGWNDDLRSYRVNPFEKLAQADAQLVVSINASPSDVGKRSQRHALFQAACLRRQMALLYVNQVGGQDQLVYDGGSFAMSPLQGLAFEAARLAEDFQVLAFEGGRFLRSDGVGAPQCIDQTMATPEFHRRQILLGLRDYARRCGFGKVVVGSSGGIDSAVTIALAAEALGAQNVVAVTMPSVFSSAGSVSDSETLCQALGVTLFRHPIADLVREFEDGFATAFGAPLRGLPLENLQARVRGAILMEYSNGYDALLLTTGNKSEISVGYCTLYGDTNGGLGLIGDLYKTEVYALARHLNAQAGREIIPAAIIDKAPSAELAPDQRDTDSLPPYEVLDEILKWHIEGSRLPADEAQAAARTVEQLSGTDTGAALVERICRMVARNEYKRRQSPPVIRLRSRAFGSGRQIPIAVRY
The data set is described as above. Format: biochemical. As to conditions: no PII (2 uM BSA); 100 nM enzyme, 4 mM ATP, 2 mM NaAD, 4 mM L-glutamine, 10 mM MgCl2, pH 8, 30 C.

Data set [3] has as its target T4, GlnZ-AbNadE2 complex (NAD+ site on AbNadE2) (Azospirillum baldaniorum, UniProt A0A9P1JPD2).
T4 construct: gene nadE; with Nitrogen regulatory protein P-II 2
The description is as above. Format: biochemical.

For another data set, the target named is T5, AbNadE2 (AbNadE2^Gln) (Azospirillum baldaniorum, UniProt A0A9P1JPD2).
T5 construct: gene nadE; full-length, untagged ('native AbNadE2'), recombinant from E. coli, purified as described previously; homodimer
T5 sequence (A0A9P1JPD2 1-554): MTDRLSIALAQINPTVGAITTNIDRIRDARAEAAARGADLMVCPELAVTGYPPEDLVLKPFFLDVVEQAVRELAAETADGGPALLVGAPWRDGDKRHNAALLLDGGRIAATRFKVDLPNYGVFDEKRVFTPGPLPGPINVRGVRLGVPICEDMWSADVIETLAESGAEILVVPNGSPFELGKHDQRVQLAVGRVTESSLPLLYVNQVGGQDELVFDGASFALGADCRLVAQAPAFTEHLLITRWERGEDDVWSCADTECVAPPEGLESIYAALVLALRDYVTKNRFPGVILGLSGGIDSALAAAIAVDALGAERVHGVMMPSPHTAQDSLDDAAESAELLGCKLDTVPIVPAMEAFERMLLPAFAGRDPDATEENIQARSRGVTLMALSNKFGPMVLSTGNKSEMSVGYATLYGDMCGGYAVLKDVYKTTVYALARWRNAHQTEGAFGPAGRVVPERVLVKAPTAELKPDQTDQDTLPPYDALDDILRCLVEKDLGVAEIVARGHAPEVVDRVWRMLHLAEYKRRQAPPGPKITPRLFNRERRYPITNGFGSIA
The data set is described as above. The class given is biochemical. As to conditions: read-out: IC50 (also called Ki).

Data set [4] concerns the target Azospirillum brasilense type 2 glutamine-dependent NAD synthetase AbNadE2, native (untagged), purified (Azospirillum brasilense).
The target in data set [5] is N-terminal His-tagged GlnZ protein of Azospirillum brasilense (Azospirillum brasilense) (UniProt P70731). As to the kind of experiment: BLI; Octet K2; His-GlnZ immobilised on Ni-NTA sensor tip, AbNadE2 as analyte, with ADP (methods: 50 mM Tris-HCl pH 7, 50 mM KCl, 10 mM MgCl2, 2 mM ADP, 2.5 mM NAD+, 1 mg/ml BSA).
Data set [6] shares this target. As to the kind of experiment: BLI; Octet K2; His-GlnZ (2 ug/ml) immobilised on Ni-NTA sensor tip, AbNadE2 30-2000 nM (dimer) as analyte, with ATP (legend: 5 mM MgCl2, 1 mM ATP; methods: 50 mM Tris-HCl pH 7, 50 mM KCl, 10 mM MgCl2, 2 mM ATP, 2.5 mM NAD+, 1 mg/ml BSA).
Substrate in the data set “purified protein”: NC(=O)CC[C@H](N)C(=O)O
As to the kind of experiment: purified protein. As to conditions: without NAD+, pH 8, 30 C.

Substrate in data set [7]: Nc1ncnc2c1ncn2[C@@H]1O[C@H](COP(=O)(O)OP(=O)([O-])OC[C@H]2O[C@@H]([n+]3cccc(C(=O)O)c3)[C@H](O)[C@@H]2O)[C@@H](O)[C@H]1O
Nature of the data set: NAD synthetase activity, Michaelis-Menten fit. Particulars: without NAD+, pH 8, 30 C. Format: biochemical, Azospirillum baldaniorum.

Chain of N-terminal His-tagged GlnZ protein of Azospirillum brasilense (Azospirillum brasilense) (P70731 entry or part of it): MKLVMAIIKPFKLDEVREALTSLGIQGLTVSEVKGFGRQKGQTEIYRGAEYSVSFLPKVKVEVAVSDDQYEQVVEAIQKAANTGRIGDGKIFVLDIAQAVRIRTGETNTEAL
T1 sequence (P70731 1-112, one chain of several): as the sequence (P70731 entry or part of it) above
Chain of Azospirillum brasilense type 2 glutamine-dependent NAD synthetase AbNadE2, native (untagged), purified (Azospirillum brasilense) (A0A0P0EJG6 entry or part of it): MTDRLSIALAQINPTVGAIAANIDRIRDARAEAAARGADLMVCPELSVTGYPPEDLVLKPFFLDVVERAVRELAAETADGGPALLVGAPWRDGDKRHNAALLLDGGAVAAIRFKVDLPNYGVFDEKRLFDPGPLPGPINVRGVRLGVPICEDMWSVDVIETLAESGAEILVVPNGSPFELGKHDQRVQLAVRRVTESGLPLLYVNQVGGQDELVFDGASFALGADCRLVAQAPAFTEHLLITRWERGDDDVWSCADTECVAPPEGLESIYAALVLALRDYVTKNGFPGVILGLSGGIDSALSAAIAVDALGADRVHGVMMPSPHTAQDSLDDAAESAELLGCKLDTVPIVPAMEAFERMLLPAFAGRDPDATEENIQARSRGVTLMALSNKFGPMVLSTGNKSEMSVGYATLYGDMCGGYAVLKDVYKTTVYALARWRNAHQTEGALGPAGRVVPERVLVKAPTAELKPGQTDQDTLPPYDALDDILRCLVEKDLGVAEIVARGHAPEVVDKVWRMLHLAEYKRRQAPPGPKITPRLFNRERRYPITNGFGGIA
T4 sequence (P70731 1-112 partner, one chain of several): as the sequence (P70731 entry or part of it) above

For orientation: Ki means a measure of affinity in units of concentration, obtained from inhibition or displacement. High values mean lower affinity, low ones higher affinity. A word on the IC50: it is the concentration at which inhibition is half-maximal. In turn, `O=C(O)CCC(=O)C(=O)O` [2-oxoglutarate] showed an inhibition constant Ki in data set [1] of 52.1 µM. In data set [2], this molecule displayed a half-maximal inhibitory concentration (IC50) of 15.5 µM.

Consider `NC(=O)c1ccc[n+]([C@@H]2O[C@H](COP(=O)([O-])OP(=O)(O)OC[C@H]3O[C@@H](n4cnc5c(N)ncnc54)[C@H](O)[C@@H]3O)[C@@H](O)[C@H]2O)c1` [NAD^+], for which the “relative activity vs NAD+ concentration” value is “In both cases, NadE2^Gln was inhibited by NAD^+ in a dose-dependent manner” at ScNadE2 (ScNadE^Gln) and “In both cases, NadE2^Gln was inhibited by NAD^+ in a dose-dependent manner” on HsNadE2 (HsNadE2^Gln). Besides, the half-maximal inhibitory concentration (IC50) worked out at 2500 µM in data set [3] and 1000 µM on AbNadE2 (AbNadE2^Gln).

As to “N-terminal His-tagged GlnZ protein of Azospirillum brasilense (from UniProt P70731 1-112) (natural protein)”, in [4], the activation of AbNadE2 NAD synthetase activity (PPi formation) at 2.5 mM NAD+, 100 nM AbNadE2, GlnZ 0.25-10 uM (trimer); Kact is 640 nM.

One may read the Kd as the free concentration of one partner at which half of the binding sites on the other are occupied at equilibrium, for simple one-to-one binding. Low readings indicate higher affinity, high ones lower affinity. Usually koff stands for the rate constant with which the complex falls apart. Lower therefore signals slow dissociation. A word on the kon: it is a measure of how fast the partners come together. A low value points to slower complex formation. “Azospirillum brasilense type 2 glutamine-dependent NAD synthetase AbNadE2, native (untagged), purified (enzyme)”: in data set [5], the Kd amounted to 0.15 µM. Moreover, in [6], the Kd stood at 0.3 µM, the koff turned out to be 0.0272 s⁻¹ and the kon turned out to be 90900 M⁻¹ s⁻¹.

B1: AbNadE2 (AbNadE2^Gln) (Azospirillum baldaniorum) (protein)
chain: MTDRLSIALAQINPTVGAITTNIDRIRDARAEAAARGADLMVCPELAVTGYPPEDLVLKPFFLDVVEQAVRELAAETADGGPALLVGAPWRDGDKRHNAALLLDGGRIAATRFKVDLPNYGVFDEKRVFTPGPLPGPINVRGVRLGVPICEDMWSADVIETLAESGAEILVVPNGSPFELGKHDQRVQLAVGRVTESSLPLLYVNQVGGQDELVFDGASFALGADCRLVAQAPAFTEHLLITRWERGEDDVWSCADTECVAPPEGLESIYAALVLALRDYVTKNRFPGVILGLSGGIDSALAAAIAVDALGAERVHGVMMPSPHTAQDSLDDAAESAELLGCKLDTVPIVPAMEAFERMLLPAFAGRDPDATEENIQARSRGVTLMALSNKFGPMVLSTGNKSEMSVGYATLYGDMCGGYAVLKDVYKTTVYALARWRNAHQTEGAFGPAGRVVPERVLVKAPTAELKPDQTDQDTLPPYDALDDILRCLVEKDLGVAEIVARGHAPEVVDRVWRMLHLAEYKRRQAPPGPKITPRLFNRERRYPITNGFGSIA
notes: full-length, untagged ('native AbNadE2'), recombinant from E. coli, purified as described previously; homodimer
As a reminder, the Km is the substrate concentration at which the rate is half of its maximum. Consider B1, for which the Km worked out at 720 µM in the data set “purified protein” and 80 µM in data set [7].
